Data published in US20160130333A1.

Target: histones
Assay: ELISA

Kd: 6.6 nM
B1: murine IMMU-H4 antibody (parental murine anti-histone H4 antibody) (antibody, V domains shown)
VH: QVQLQQSGAELVRPGASVKLSCTASGFNIKDDYLHWVKQRPEQGLEWIGWIDPENGDTEYASKFQGKATITADTSSNTAYLQLSSLTSEDTAVYYCSSPLVHLRTFAYWGQGTLVTVS
VL: DIQLTQSPASLAVSLGQRATISCRASESVDSYDNSLHWFQQKPGQPPKLLIYLASNLESGVPARFSGSGSRTDFTLTIDPVEADDAATYYCQQNNEDPWTFGGGTKLEIKR
